The nanobody polyreactivity screen of Harvey et al. (2022)

Test: yeast display, Sf9 membrane polyspecificity reagent, FACS + sequencing; frameworks hold sequencing errors
In short: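 Nanobodies came from a synthetic yeast display library in Saccharomyces cerevisiae BJ5465, induced with galactose for 36–48 hours and stained for 1 hour at 4 °C with 10% biotinylated, detergent-solubilized Sf9 membrane reagent. Cells were enriched on streptavidin microbeads and then FACS-sorted, with low and high (top ~1%) gates set on anti-HA fluorescence for expression and streptavidin fluorescence for reagent binding. Each polyreactivity label reflects the gate a clone came from. Genes were amplified by colony PCR, sequenced by MiSeq 2 × 250 and filtered by CDR length.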

Sequence	polyreactivity (PSR sort gate)
QVQLVESGGGLVQAGGSLRLSCSASGSTFTYYAMGWYRQAPVKERELVADIDFSGTSTYYADSVKGRFTVSRDNAKNTVYLQMNSLKPEDTAVYYCATDDYNWFDYDYWGQGTHVTVSS	low polyreactivity
QVQLVESGGGLVQAGGSLRLSCSASGSTFYRYAMGWYRQAPGKERELVATITSGGSTHYADSVKGRFTISRDNAKNTVYLQMNSLKPEDTAVYYAATTSDWYTTINVVYRYYYWGQGTQVTVSS	high polyreactivity
QVQLVESGGGLVQAGGSLRLSCSASGSTFYVYAMGWYRQAPGKERELVAAIDWSDGSTYYADSVKGRFTISRDNAKNTVYLQMNSLKPEDTAVYYCAADVGGGVDYVDYYYWGQGTQVTVSS	high polyreactivity
QVQLVESGGGLVQAGGSLRLSCSASGSTFYYNAMGWYRQAPGKERELVARISRSGGSTYADSVKGRFTISRDNAKNTVYLQMNSLKPEDTAVYYCNAIGYTGPVAYPEYDYWGQGTQVTVSS	low polyreactivity
QVQLVESGGGLVQAGGSLRLSCSASGSTSFYNAIGWYRQAPGKERELVAAISWSTGSTYYADSVKGRFTISRDNAKNTVYLQMTSLKPEDTAVYYCAAETGKNVDFVWVLAYPRLDYWGQGTQVTVSS	low polyreactivity
QVQLVESGGGLVQAGGSLRLSCSASGYIFLRNAMGWYRQAPGKERALVAAIRRTGGSTYYADSVKGRFTISRDNSKNTVYLQMTSLKPEDTAVYYCDKRSYTGYEYWGQGTQVTVSS	low polyreactivity
QVQLVESGGGLVQAGGSLRLSCSAYGRIFRGYAMGGYRQAPGKERELVASISGGDSTYADSVQGRFTISRDNAKNTVYLQMNSLKPEDTAVYYCADDNEWPRYDYWGQGTQVTVSS	low polyreactivity
QVQLVESGGGLVQAGGSLRLSCSAYGSTLGYYAMGWYRQAPGKERELVAAIRYSDGNTYYADSVKGRFTISRDNAKNTVYLQMNSLKPEDTAVYYCAADGGYYGRDYWGQGTQVTVSS	high polyreactivity
QVQLVESGGGLVQAGGSLRLSCSAYGYTFSHYAMGWYRQAPGKERELVAGITWSGGSTYYADSVKGRYTISRDNAKNTVYLQMNSLKPEDTSVYYCAAKYYWYYSYSGIPLFDYWGQGTQVTVSS	low polyreactivity
QVQLVESGGGLVQAGGSLRLSCSSSGLIFRRNAMGWYRQAPGKERELVAVIDRGGRTNYADSVKGRFTISRDNAKNTVYLQMNSLKPEDTAVYYCDKRYASTSGYWGQGTQVTVSS	high polyreactivity
QVQLVESGGGLVQAGGSLRLSCVASGFNFRGNAMGLYRQAPGKERELVATISSGGNTYYADSVKGRFTISRDNAKNTVYLQMNSLKPEDTAVYYCNASDGLPTKLNVYVEFDYWGQGTQVTVSS	low polyreactivity
QVQLVESGGGLVQAGGSLRLSCVASGRIFSVYAMGWYRQAPAKERELVAGITSSGGSTYYADSVKGRFTISRDNAKNTVYLQMNSLKPEDTAVYYCAAVSEYYKGYDYWGQGTQVTVSS	high polyreactivity
QVQLVESGGGLVQAGGSLRLSFAASGFTFGYYTMGWYRQAPGKERELVAAITSGGGTYYADSVKGRFTISRDNAKNTVYLQMNSLKPEDTAVYYCATTPVWYKVSRRYGYWGQGTQVTVSS	high polyreactivity
QVQLVESGGGLVQAGGSLRLSFAASGFTFYPYTKGWYRQAPGKEREFVAAISWNCGSTYYADSVKGRFTISRDNAKHTVYLQMNRLKPEDTAVYYCAADFDASRYEYWGQGTQVTVSS	low polyreactivity
QVQLVESGGGLVQAGGSLRLSFAASGINFRSYTMGWYRQAPGKERELVAGITRSGGSTYYADSVKGRFTISRDNAKNTVYLQMNSLKPEDSAVYYCAAKFRAGRSSYYWGHGTQVTVSS	high polyreactivity
QVQLVESGGGLVQAGGSLRLSFAASGLIFDSNAMGWYRQAPGKERELVASTYYADSVKGRFTISRDNAKNTVYLQMNSLKPEDTAVYYCATTSVYKSVTYDYWGQGTQVTVSS	low polyreactivity
QVQLVESGGGLVQAGGSLRLSFAASGRIFPFYAMGWYRQEPGKERELVAALSWNGGSTFYADSVKGRFTISRDNAKNSVYLQMNSLKPEDTAVYYCAADCYATYFLYDSCGQGTQVTVSS	low polyreactivity
QVQLVESGGGLVQAGGSLRLSFAASGRTFDRYDMGWYRQAPGKERELVATISSSGGSTYYADSVKGRFTISRDNAKNTVYLQMNSLKPEDTAVYYCAADPSGDYWGQGTQVTVSS	low polyreactivity
QVQLVESGGGLVQAGGSLRLSFAASGSIFVKYAMGWYRQAPGKERELVAAITTGVGSTYYADSLKGRFTISRDNAKNTVYLQMNSLKPEDTAVYYCAVRPPRVRTVFYGGNYWGQGTQVTVSS	low polyreactivity
QVQLVESGGGLVQAGGSLRLSFAASGSIFYYYAMGWYRQAPGKERELVAAINYSGGSTYADSVKGRFTISLDNAKNTVYLQMNSLKPEDTAVYYCATRLYGYWPYGFEYWGQGTQVTVSS	low polyreactivity
